The assay addresses human coxsackie virus B adenovirus receptor (CAR) expressed on CHO cells (CHO-hCAR) (human) (UniProt P78310). Kind of assay: cell-based or functional assay.
UniProt P78310, sequence (P78310 20-365): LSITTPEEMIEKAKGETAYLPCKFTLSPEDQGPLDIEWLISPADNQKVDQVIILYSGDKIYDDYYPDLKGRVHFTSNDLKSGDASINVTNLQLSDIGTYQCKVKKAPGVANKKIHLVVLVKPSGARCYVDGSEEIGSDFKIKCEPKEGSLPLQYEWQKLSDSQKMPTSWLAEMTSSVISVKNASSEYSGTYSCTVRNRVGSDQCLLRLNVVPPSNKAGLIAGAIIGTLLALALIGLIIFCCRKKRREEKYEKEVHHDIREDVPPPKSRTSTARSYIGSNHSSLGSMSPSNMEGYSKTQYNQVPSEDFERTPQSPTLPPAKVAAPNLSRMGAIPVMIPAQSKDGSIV

In the case of “HMG-PB/Fiber complex (HMG-PB plus Fiber protein) (from UniProt P12538 1-571; P11818 1-581)”, the luciferase reporter plasmid delivery (luciferase gene expression) in CHO-hCAR against parental CHO cells is 6 times.

These data come from patent publication US20090155853A1.
